# Measurements reported in PMC3508296.
# Molecular target: fibronectin (UniProt P02751)
# Experiment: SPR
# fibronectin, sequence (P02751 32-2477): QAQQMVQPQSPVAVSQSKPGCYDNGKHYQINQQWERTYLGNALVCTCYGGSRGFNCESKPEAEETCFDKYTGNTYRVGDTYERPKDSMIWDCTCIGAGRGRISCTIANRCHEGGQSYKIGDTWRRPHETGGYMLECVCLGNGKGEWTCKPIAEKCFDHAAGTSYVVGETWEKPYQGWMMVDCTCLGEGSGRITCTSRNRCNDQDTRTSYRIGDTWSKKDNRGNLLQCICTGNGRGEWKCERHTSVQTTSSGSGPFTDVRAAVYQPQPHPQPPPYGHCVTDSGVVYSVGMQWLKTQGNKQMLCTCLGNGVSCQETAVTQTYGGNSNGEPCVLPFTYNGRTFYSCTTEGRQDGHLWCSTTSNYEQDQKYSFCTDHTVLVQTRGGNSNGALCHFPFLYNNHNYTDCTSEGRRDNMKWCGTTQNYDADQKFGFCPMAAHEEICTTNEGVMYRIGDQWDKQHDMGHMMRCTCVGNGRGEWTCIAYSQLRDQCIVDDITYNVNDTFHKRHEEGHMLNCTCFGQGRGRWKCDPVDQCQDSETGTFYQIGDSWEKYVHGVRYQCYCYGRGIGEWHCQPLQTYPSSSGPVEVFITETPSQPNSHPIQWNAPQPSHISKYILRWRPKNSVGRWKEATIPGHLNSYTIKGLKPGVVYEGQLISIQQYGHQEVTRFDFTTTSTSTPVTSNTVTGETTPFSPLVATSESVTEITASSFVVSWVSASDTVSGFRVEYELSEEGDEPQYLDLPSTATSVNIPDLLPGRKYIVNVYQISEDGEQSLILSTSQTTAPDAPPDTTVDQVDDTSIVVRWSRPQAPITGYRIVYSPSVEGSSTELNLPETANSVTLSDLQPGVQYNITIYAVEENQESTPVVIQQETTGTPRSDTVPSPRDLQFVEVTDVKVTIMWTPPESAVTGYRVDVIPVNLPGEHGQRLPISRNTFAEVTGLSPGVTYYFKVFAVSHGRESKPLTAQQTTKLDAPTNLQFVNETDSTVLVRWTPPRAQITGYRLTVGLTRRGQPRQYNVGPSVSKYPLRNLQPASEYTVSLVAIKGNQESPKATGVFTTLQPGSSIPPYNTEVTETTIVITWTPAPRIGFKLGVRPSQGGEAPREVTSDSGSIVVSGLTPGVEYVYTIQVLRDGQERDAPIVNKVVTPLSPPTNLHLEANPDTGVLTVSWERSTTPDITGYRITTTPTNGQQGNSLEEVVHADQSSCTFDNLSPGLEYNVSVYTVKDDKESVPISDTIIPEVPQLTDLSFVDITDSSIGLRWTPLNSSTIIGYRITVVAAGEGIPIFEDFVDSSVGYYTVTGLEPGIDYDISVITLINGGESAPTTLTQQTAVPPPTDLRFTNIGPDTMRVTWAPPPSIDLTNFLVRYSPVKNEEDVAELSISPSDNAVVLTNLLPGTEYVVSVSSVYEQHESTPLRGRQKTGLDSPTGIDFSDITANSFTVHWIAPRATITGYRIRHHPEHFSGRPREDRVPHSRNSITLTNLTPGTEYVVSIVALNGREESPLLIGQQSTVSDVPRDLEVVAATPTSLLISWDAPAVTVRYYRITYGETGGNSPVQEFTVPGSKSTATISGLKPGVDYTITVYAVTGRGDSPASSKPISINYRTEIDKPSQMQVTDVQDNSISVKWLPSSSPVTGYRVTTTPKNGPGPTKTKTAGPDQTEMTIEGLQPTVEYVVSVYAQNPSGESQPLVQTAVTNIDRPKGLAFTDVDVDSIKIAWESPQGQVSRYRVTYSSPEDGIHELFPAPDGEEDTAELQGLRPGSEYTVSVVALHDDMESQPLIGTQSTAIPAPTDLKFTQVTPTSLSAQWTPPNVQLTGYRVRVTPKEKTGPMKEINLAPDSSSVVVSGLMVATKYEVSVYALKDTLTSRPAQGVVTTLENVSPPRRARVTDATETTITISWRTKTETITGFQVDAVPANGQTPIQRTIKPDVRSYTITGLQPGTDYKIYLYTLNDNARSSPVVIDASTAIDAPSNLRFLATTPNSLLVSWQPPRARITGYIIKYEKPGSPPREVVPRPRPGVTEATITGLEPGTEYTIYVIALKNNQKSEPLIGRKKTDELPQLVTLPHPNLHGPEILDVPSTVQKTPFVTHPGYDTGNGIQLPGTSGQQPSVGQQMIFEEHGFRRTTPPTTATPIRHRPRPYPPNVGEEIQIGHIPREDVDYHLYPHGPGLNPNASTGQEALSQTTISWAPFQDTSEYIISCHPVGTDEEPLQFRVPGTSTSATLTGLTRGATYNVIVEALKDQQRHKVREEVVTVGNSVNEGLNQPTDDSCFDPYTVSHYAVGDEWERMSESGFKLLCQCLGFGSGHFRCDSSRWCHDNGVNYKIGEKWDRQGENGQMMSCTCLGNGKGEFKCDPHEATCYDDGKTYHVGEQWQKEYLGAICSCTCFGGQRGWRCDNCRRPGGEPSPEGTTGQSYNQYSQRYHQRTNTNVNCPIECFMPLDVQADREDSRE
Substance,Kd [nM],koff [s⁻¹],kon [M⁻¹ s⁻¹],t1/2 (calculated from Koff) [s]
BB0347 (natural protein; other documents disagree on this pair),640,0.16,265000,
BBK32 (from UniProt O50835 1-354) (natural protein; other documents disagree on this pair),19,0.1,5.21e+06,6.93
